From patent publication US20230295310A1 (ABCELLERA BIOLOGICS, published 2023)

Assays:
[1] = biological target: T1, human CD3 expressed on cells (Jurkat cells; human primary T cells) (human, UniProt P07766 23-207; P04234 22-171; P09693 23-182); experiment: flow cytometry, 25 nM, Jurkat cells
T1 construct: whole, on cells
Outline: (§1)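 Cells expressing CD3 were exposed to each antibody diluted to 25 nM for 30 minutes at 4° C, then analysed by flow cytometry. The median fluorescence signal was expressed relative to an isotype control, and a value of at least 10 indicated binding.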

[2] = biological target: T1, human CD3 expressed on cells (Jurkat …); experiment: flow cytometry, 25 nM, human primary T cells
Outline: as §1

[3] = biological target: T2, cynomolgus monkey CD3 expressed on cyno primary T cells (cynomolgus monkey, UniProt Q95LI5 22-198; Q95LI8 22-171; Q95LI7 23-181); experiment: flow cytometry, cyno primary T cells
T2 construct: whole, on cells; CD3 complex on purified cynomolgus monkey CD3 pan T cells; also called cyno CD3
Outline: as §1

T1 sequence (P07766 23-207, chain 1 of 3): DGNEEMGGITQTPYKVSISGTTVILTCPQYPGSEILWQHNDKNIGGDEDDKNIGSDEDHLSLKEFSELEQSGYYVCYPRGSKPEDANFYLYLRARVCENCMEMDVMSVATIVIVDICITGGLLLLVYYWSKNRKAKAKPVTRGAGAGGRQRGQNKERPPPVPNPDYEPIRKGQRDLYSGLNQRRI
T1 sequence (P04234 22-171, chain 2 of 3): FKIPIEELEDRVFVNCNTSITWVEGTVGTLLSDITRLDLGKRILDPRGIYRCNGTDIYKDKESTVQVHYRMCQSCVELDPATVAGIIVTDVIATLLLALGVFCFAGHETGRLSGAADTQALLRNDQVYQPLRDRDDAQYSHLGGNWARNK
T1 sequence (P09693 23-182, chain 3 of 3): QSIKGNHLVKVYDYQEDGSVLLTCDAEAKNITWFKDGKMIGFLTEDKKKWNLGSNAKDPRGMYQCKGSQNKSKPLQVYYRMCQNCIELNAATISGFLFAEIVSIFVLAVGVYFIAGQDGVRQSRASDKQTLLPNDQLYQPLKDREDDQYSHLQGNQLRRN
T2 sequence (Q95LI5 22-198, chain 1 of 3): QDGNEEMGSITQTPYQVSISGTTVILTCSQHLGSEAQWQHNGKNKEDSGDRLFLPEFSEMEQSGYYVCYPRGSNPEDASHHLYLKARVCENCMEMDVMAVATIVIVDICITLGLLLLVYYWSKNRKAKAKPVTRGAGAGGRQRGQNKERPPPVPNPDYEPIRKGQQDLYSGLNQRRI
T2 sequence (Q95LI8 22-171, chain 2 of 3): as the sequence (P04234 22-171, chain 2 of 3) above, with I5V, N15K, I20V, S32T, D33N, I34N, T64A, S74N, V83L, H141R counted along it
T2 sequence (Q95LI7 23-181, chain 3 of 3): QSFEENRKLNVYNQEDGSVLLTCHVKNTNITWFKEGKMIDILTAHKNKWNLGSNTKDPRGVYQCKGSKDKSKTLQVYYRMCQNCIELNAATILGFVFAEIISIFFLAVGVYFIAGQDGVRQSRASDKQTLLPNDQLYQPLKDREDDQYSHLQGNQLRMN

Row | Binding (FOI) [1] [FOI] | Binding (FOI) [2] [FOI] | Binder | binding result [3]
1 | 181 | 243 | mAb 220 (antibody, V domains shown, VH/VL only) VH: QEQLVESGGGVVQPGGSLRLSCVASGFTFSGYGMHWVRQAPGKGLEWVAIIWYNGRKTYYAESVKGRFTISRDNSKNTLSLQMNSLRVEDTAVYYCTTGKGYNWFDPWGQGTLVTVSS VL: EIVMTQSPATLSVSPGERATLSCRASQSVSSNLAWYQQKPGQAPRLLIYGASTRATGIPARFSGSGSGTEFTLTISSLQSEDFAVYYCQQFNAWPLTFGGGTKMEIK | no binding (tested: FOI <10 (FOI >=10 = positive); 25 nM)
2 | 210 | 267 | mAb 225 (antibody, V domains shown, VH/VL only) VH: QEQLVESGGGVVQPGGSLRLSCAASGFKFSGYGMHWVRQAPGKGLEWVAIIWYNGRKTYYAESVKGRFTISRDNSKNTLSLQMNRLRVEDTAVYYCTAGQGYNWFDPWGQGTLVTVSS VL: EIVMTQSPATLSVSPGERATLSCRASQSVSSNLAWYQQKPGQAPRLLIYGASTRATGIPARFSGSGSGTEFTLTISSLQSEDFAVYYCQQFNAWPLTFGGGTKMEIK | no binding (tested: FOI <10 (FOI >=10 = positive); 25 nM)
3 | 184 | 270 | mAb 252 (antibody, V domains shown, VH/VL only) VH: EVQILESGGGLVQPGGSLRLSCVASGFTFRSYVMSWVRRAPGRGLEWVSGISTSGGNTYYADSVKGRFTISRDNSKNTLFLQMNGLRAEDTAVYYCAKLFSYYYYFMDVWGKGTTVTVSS VL: SYELTQPLSVSVALGQTARITCGGNNIGSKDVHWYQQKPGQAPVLVIYRDSNRPSGIPERFSGSNSGNTATLTISGAQAGDEADYYCQVWDRRTAVFGGGTQLTAL | no binding (tested: FOI <10 (FOI >=10 = positive); 25 nM)
4 | 125 | 109 | mAb 250 (antibody, V domains shown, VH/VL only) VH: QVQLVESGGGVVQPGRSLRLSCAASGFTFSTYGMHWVRQAPGKGLEWVAVLWSDGRSKYYADSVQGRFTISRDNSKNTLFLQMSSLRAEDTAVYYCAREPYYDFWSGYYTGYMDVWGKGTTVTVSS VL: DIQMTQSPSSLSASVGDRVTITCRASQGIRNDLGWYQQKPGKAPKRLIYAASSLQGGVPSRFSGSGSGTEFTLTISSLQPEDFATYYCLQHNSYPRTFGQGTKVEIK | no binding (tested: FOI <10 (FOI >=10 = positive); 25 nM)
5 | 177 | 216 | mAb 240 (antibody, V domains shown, VH/VL only) VH: QGKLVESGGGVVQPGRSLRLSCVASGFTFSGYGMHWVRQAPNKGLEWVAIIYYDGKNKYYADSVKGRFTISRDNSKNTLYLQLNSLRAEDTAVYYCVRGPGYNWFDPWGQGTLVTVSS VL: EIVLTQSPDFQSVTPKEKVTITCRASQNIGSSLHWYQQKPDQSPKLLIKHASQSFSGVPSRFSGSGSGTDFTLTINSLEAEDAATYYCHQSSSLPYTFGQGTKLEIK | no binding (tested: FOI <10 (FOI >=10 = positive); 25 nM)
6 | 174 | 203 | mAb 248 (antibody, V domains shown, VH/VL only) VH: QVKLVESGGGVVQPGRSLRLSCVASGFTFSGYGMHWVRQAPGKGLEWVAIIYYDGKNKYYVDSVKGRFTISRDNSKNTLYLQLNSLRAEDTAVYYCVRGPGYNWFDHWGQGTLVTVAS VL: EIVLTQSPDFQSVTPKEKVTITCRASQSIGSSLHWYQQKPDQSPKLLIKYASQSFSGVPSRFSGSGSGTDFTLTINSLEAEDAATYYCHQSSSLPYTFGQGTKLEIK | no binding (tested: FOI <10 (FOI >=10 = positive); 25 nM)
7 | 180 | 250 | mAb 229 (antibody, V domains shown, VH/VL only) VH: QEQLVESGGGVVQPGRSLRLSCAASGFTFSSYGMHWVRQAPGKGLEWVAIIYYNGKKKDYADSVKGRFTISRDNSKNTLYLQMNSLRAEDTAVYYCARGLGYNWFDPWGQGTLVTVSS VL: EIVLTQSPDFQSVTPKEKVTITCRASQSIGSSLHWYQQKPDQSPKLLIKYASQSFSGVPSRFSGSGSGTDFTLTINSLEAEDAATYYCHQSSSLPYTFGQGTKLEIK | no binding (tested: FOI <10 (FOI >=10 = positive); 25 nM)
8 | 61.3 | 88.8 | mAb 267 (antibody, V domains shown, VH/VL only) VH: QVQLQQSGPGLVKPSQTLSLTCAISGDSISSNYASWNWIRQSPSRGLEWLGRTYYRSKWYNDFAVSVKSRIIINPDTSRNQFSLHLNSVTPEDTAIYYCAREANGRGYFYYMDVWGKGTTVTVSS VL: EIVLTQSPDFQSVTPKEKVTITCRASQSIGSSLHWYQQKPDQSPKLLIKYASQSISGVPSRFSGRGSGTDFTLTINSLEAEDAAAYFCHQSSGSPHTFGGGTKVEIK | no binding (tested: FOI <10 (FOI >=10 = positive); 25 nM)
9 | 62.3 | 77.7 | mAb 257 (antibody, V domains shown, VH/VL only; the printed VH holds a letter U) VH: QVQLQQSGPGLVKPSQTLSLTCAISGDSVSSNYASWNWIRQSPSRGLEWLGRTYYRSKWYNDFAVSVRSRVTINADTSKNQFSLHLSSVTPEDTAIYFCAREANGRGYFYYMDVWGKGTTVTVSS VL: EIVLTQSPDFQSVTPKEKVTITCRASQSIGSSLHWYQQKPDQSPKLLIKYASQSISGVPSRFSGSGSGTVFTLTINSLEAEDAAAYFCHQSSGSPHTFGGGTKVEIK | no binding (tested: FOI <10 (FOI >=10 = positive); 25 nM)
10 | 85 | 71.9 | mAb 266 (antibody, V domains shown, VH/VL only) VH: QVQLQQSGPGLVKPSQTLSLTCAISGDSVSSNYASWNWIRQSPSRGLEWLGRTYYRSKWYIDFAVSVKSRLTINADTSKNQFSLHLRSVTPEDTAIYFCAREANGRGYFYYMDVWGKGTTVTVSS VL: EIVLTQSPDFQSVTPKEKVTITCRASQSIGSSLHWYQQKPDQSPKLLIKYASQSISGVPSRFSGSGSGTVFTLTINSLEAEDAAAYFCHQSSGSPHTFGGGTKVEIK | no binding (tested: FOI <10 (FOI >=10 = positive); 25 nM)

Further lines, the binder ahead of its results:

Row | Binder | Binding (FOI) [1] [FOI] | Binding (FOI) [2] [FOI] | binding result [3]
11 | mAb 237 (antibody, V domains shown, VH/VL only) VH: EVQLLESGGDLVQPGGSLRLTCAASGFTFRSYAMNWVRQAPGKGLEWVSTISSRGDTTNYADSVKGRFTISRDTSKNTLYLQMDNLRADDTAVYYCSKMFSYYYYYMDVWGKGTTVTVSS VL: SYELTQPLSVSVALGQTARITCGGNNIGSKDVHWYQQKPGQAPVLVIYRDSNRPSGIPERFSGSNSGNTATLTISRAQAGDEADYYCQVWDSRTAVFGGGTQLTAL | 217 | 293 | no binding (tested: FOI <10 (FOI >=10 = positive); 25 nM)
12 | mAb 251 (antibody, V domains shown, VH/VL only) VH: EVQILESGGGLVQPGGSLRLSCVASGFTFRSYVMSWVRRAPGRGLEWVSGISASGGNTYYADSVKGRFTISRDNSKNTLFLQMNGLRAEDTAVYYCAKLFSYYYYFMDVWGKGTTVTVSS VL: SYELTQPLSVSVALGQTARITCGGNNIGSKDVHWYQQKPGQAPVLVIYRDSNRPSGIPERFSGSNSGNTATLTISGAQAGDEADYYCQVWDRRTAVFGGGTQLTAL | 215 | 297 | no binding (tested: FOI <10 (FOI >=10 = positive); 25 nM)
13 | mAb 238 (antibody, V domains shown, VH/VL only) VH: EVQLLESGGDLVQPGGSLRLTCAASGFTFRSYAMNWVRQAPGKGLEWVSTISSRGDTTNYADSVKGRFTISRDTSKNTLYLQMDNLRADDTAVYYCSKMFSYYYYYMDVWGKGTTVTVSS VL: SYELTQPLSVSVALGQTARITCGGNNIGSKDVHWYQQKPGQAPVLVIYRDSNRPSGIPERFSGSNSGNTATLTISRAQAGDEADYYCQVWDSSTAVFGGGTQLTAL | 185 | 266 | no binding (tested: FOI <10 (FOI >=10 = positive); 25 nM)
14 | mAb 228 (antibody, V domains shown, VH/VL only) VH: EVQLLESGGGLVQPGGSLRLSCAASGFTFSNYAMNWVRQAPGKGLEWVSTISGSGGGKYYADSVKGRFTISRDNSKNTLYLHMNSLRAEDTAVYYCAKDPVQDRYYFYYYYMDVWGKGTTVTVSS VL: EIVLTQSPDFQSVTPKEKVTITCRASQSIGSSLHWYQQKPDQSPKLLIKYASQSISGVPSRFSGSGSGTDFTLTINSLEAEDAAAYYCHQSSSLPHTFGQGTKLEIK | 159 | 105 | no binding (tested: FOI <10 (FOI >=10 = positive); 25 nM)
15 | mAb 256 (antibody, V domains shown, VH/VL only) VH: QVQLQQSGPGLVKPSQTLSLTCAISGDSVSSNYASWNWIRQSPSRGLEWLGRTYYRSKWYNDFAVSVKSRVTINADTSKNQFSLHLSSVTPEDTAIYFCAREANGRGYFYYMDVWGKGTTVTVSS VL: EIVLTQSPDFQSVTPKEKVTITCRASQSIGSSLHWYQQKPVQSPKLLIKYASQSISGVPSRFSGSGSGTVFTLTINSLEAEDAAAYFCHQSSGSPHTFGGGTKVEIK | 61.5 | 73 | no binding (tested: FOI <10 (FOI >=10 = positive); 25 nM)
16 | mAb 255 (antibody, V domains shown, VH/VL only) VH: QVQVQQSGPGLVKPSQTLSLTCAISGDSVSSKYASWNWIRQSPSRGLEWLGRTYYRSKWYNDFAVSVKSRITINADTSKNQFSLHLSSVTPEDTAIYFCAREANGRGYFYYMDVWGKGTTVTVSS VL: EIVLTQSPDFQSVTPKEKVTITCRASQSIGSSLHWYQQKPDQSPKLLIKYASQSISGVPSRFSGSGSGTVFTLTINSLEAEDAAAYFCHQSSGSPHTFGGGTKVEIK | 162 | 198 | no binding (tested: FOI <10 (FOI >=10 = positive); 25 nM)
17 | mAb 230 (antibody, V domains shown, VH/VL only) VH: EVQLLESGGGLVQPGGSLRLSCAASGFTFSSYAMSWVRQAPGKGLEWVSSISGSGGSRYYADSVKGRFTISRDNSKNTLYLQMNSLRAEDTAVYYCAKDPVQDRYYFYYYYMDVWGKGTTVTVSS VL: EIVLTQSPDFQSVTPKEKVTITCRASQSIGSSLHWYQQKPDQSPKLLIKYASQSISGVPSRFSGSGSGTDFTLTINSLEAEDAAAYYCHQSSSLPHTFGQGTKLEIK | 141 | 55.3 | no binding (tested: FOI <10 (FOI >=10 = positive); 25 nM)
